This note sets out measurements from patent US20250163145A1 (SHIONOGI, published 2025).

Where no end group is shown, it is not given here.

Test [1] has as its target T1, Cys-hCE3C peptide (CQPKYEYSL), hCE3C peptide of human Nav1.7 with an added N-terminal Cys (human, also: biotin-labeled, site not given here).
T1 construct: Residues 1424-1431 of human Nav1.7 (UniProtKB Q15858) plus an N-terminal Cys; also called immunogenic peptide; immunogen peptide
T1 peptide: CQPKYEYSL
The experiment in a line: ELISA, hybridoma supernatant on anti-mouse IgG plate, biotin-labeled Cys-hCE3C + streptavidin-HRP. Here is the method: Three days after the final immunization, the spleen was removed, splenocytes and mouse myeloma cells (p3x6363-Ag8, Tokyo Oncology Institute) were fused by the PEG-method, and selection was made in a medium containing hypoxanthine, aminopterin and thymidine. Human Nav1.7-binding antibodies were identified by performing ELISA against immunogenic peptides using hybridoma culture supernatants. Specifically, hybridoma culture supernatant was added to an anti-mouse IgG antibody immobilized plate, washed twice with ELISA wash buffer, and biotin-labeled immunogenic peptide (Cys-hCE3C) and Streptavidin-HRP (manufactured by PIERCE) was added and reacted overnight at 4° C. After washing twice with ELISA wash buffer and developing color by adding TMB-Substrate Chromogen (manufactured by Thermo Fisher Scientific), the reaction was stopped with an equal volume of 0.5N sulfuric acid, and the absorbance at 450 nm was measured.
(In general: ELISA stands for enzyme-linked immunosorbent assay.)

Test [2] has as its target T2, epitope peptide Cys-CE3C long (also: biotin label, site not given here).
T2 peptide: CSVNVDKQPKYEYSL
The test can be described thus: competitive ELISA (Example 5). The procedure:
A diluted solution of the obtained recombinant humanized antibody, a biotin-labeled immunogen peptide, and Streptavidin-HRP (manufactured by PIERCE) were added to an anti-human IgG antibody-immobilized plate, and reacted overnight at 4° C. […] Next, a recombinant human antibody at the dilution rate, a biotin-labeled immunogen peptide, and Streptavidin-HRP (manufactured by PIERCE) were added. At the same time, a dilution series of unlabeled immunogenic peptide was added and reacted overnight at 4° C. After washing twice with ELISA wash buffer, TMB-Substrate Chromogen (manufactured by Thermo Fisher Scientific) was added to develop color, the reaction was stopped with an equal amount of 0.5N sulfuric acid, and the absorbance at 450 nm was measured. The concentration of the unlabeled peptide which attenuated the signal of the biotin-labeled peptide by half was defined as the affinity (IC50).

B1: mouse monoclonal antibody 15H11 (antibody, V domains shown)
VH: EVQLQQSGPELLKPGASVKISCKASGYTFTDYNMHWVKQSHGRSLEWIGRINPKNGVINSNEKFKDKATLTVDKSLSTAYMDLRSLTSEDSAVYFCAPSYYGGNTDAYWGHGTLVTVSA
VL: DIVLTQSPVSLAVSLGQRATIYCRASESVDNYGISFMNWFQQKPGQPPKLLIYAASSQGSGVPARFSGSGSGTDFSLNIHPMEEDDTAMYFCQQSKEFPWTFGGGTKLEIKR
notes: Mouse hybridoma antibody; also called mouse 15H11
For the molecule B1, in test [1], the binding result was “binds”.

B2: h15H11 light chain CDR mutant Q90N (antibody, human IgG4 S228P, kappa, name in Kabat numbering, V domains shown)
VH: QVQLVQSGSELKKPGASVKVSCKASGYTFTDYNMHWVRQAPGRSLEWMGRINPKNGVINSNEKFKDRFVFSLDTSVSTAYLQISSLKAEDTAVYYCAPSYYGGNTDAYWGQGTLVTVSS
VL: DIVLTQSPASLAVSPGQRATITCRASESVDNYGISFMNWFQQKPGQPPKLLIYAASSQGSGVPARFSGSGSGTDFTLTINPMEANDTANYYCQNSKEFPWTFGGGTKVEIKR
notes: hIgG4Pro/hIgK
Regarding B2, the binding result in test [2] is “no binding (tested: below the detection limit)”.

B3: h15H11 light chain CDR mutant W96Y (antibody, human IgG4 S228P, kappa, name in Kabat numbering, V domains shown)
VH: QVQLVQSGSELKKPGASVKVSCKASGYTFTDYNMHWVRQAPGRSLEWMGRINPKNGVINSNEKFKDRFVFSLDTSVSTAYLQISSLKAEDTAVYYCAPSYYGGNTDAYWGQGTLVTVSS
VL: DIVLTQSPASLAVSPGQRATITCRASESVDNYGISFMNWFQQKPGQPPKLLIYAASSQGSGVPARFSGSGSGTDFTLTINPMEANDTANYYCQQSKEFPYTFGGGTKVEIKR
notes: hIgG4Pro/hIgK
In the case of B3, the binding result in test [2] is “no binding (tested: below the detection limit)”.
